The values that follow come from IntAct's records for PubMed 16234233.

First the molecules themselves.
B1: Acid-sensing ion channel 3 (Rattus norvegicus (Rat)), O35240 (parent)
chain: MKPRSGLEEAQRRQASDIRVFASSCTMHGLGHIFGPGGLTLRRGLWATAVLLSLAAFLYQVAERVRYYGEFHHKTTLDERESHQLTFPAVTLCNINPLRRSRLTPNDLHWAGTALLGLDPAEHAAYLRALGQPPAPPGFMPSPTFDMAQLYARAGHSLEDMLLDCRYRGQPCGPENFTVIFTRMGQCYTFNSGAHGAELLTTPKGGAGNGLEIMLDVQQEEYLPIWKDMEETPFEVGIRVQIHSQDEPPAIDQLGFGAAPGHQTFVSCQQQQLSFLPPPWGDCNTASLDPDDFDPEPSDPLGSPRPRPSPPYSLIGCRLACESRYVARKCGCRMMHMPGNSPVCSPQQYKDCASPALDAMLRKDTCVCPNPCATTRYAKELSMVRIPSRASARYLARKYNRSESYITENVLVLDIFFEALNYEAVEQKAAYEVSELLGDIGGQMGLFIGASLLTILEILDYLCEVFQDRVLGYFWNRRSAQKRSGNTLLQEELNGHRTHVPHLSLGPRPPTTPCAVTKTLSASHRTCYLVTRL
partner: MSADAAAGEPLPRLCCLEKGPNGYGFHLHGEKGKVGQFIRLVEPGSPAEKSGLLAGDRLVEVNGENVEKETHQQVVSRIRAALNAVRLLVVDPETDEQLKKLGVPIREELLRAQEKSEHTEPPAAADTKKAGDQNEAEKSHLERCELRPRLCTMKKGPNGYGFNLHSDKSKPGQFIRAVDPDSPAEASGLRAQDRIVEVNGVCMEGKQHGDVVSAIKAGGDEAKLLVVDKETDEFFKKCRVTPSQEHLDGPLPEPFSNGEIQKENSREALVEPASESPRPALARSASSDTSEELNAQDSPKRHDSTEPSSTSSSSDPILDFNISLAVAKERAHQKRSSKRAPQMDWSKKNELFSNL

Variants of B1 are the subject of this experiment. To be noted: with nhrf1_rat Nherf1, Q9JJ19.
Take MKPRSGLEEAQRRQASDIRVFASSCTMHGLGHIFGPGGLTLRRGLWATAVLLSLAAFLYQVAERVRYYGEFHHKTTLDERESHQLTFPAVTLCNINPLRRSRLTPNDLHWAGTALLGLDPAEHAAYLRALGQPPAPPGFMPSPTFDMAQLYARAGHSLEDMLLDCRYRGQPCGPENFTVIFTRMGQCYTFNSGAHGAELLTTPKGGAGNGLEIMLDVQQEEYLPIWKDMEETPFEVGIRVQIHSQDEPPAIDQLGFGAAPGHQTFVSCQQQQLSFLPPPWGDCNTASLDPDDFDPEPSDPLGSPRPRPSPPYSLIGCRLACESRYVARKCGCRMMHMPGNSPVCSPQQYKDCASPALDAMLRKDTCVCPNPCATTRYAKELSMVRIPSRASARYLARKYNRSESYITENVLVLDIFFEALNYEAVEQKAAYEVSELLGDIGGQMGLFIGASLLTILEILDYLCEVFQDRVLGYFWNRRSAQKRSGNTLLQEELNGHRTHVPHLSLGPRPPTTPCAVTKTLSADHRTCYLVTRL [S523D]: the “effect of a mutation on the interaction” value is “increasing interaction”. Take MKPRSGLEEAQRRQASDIRVFASSCTMHGLGHIFGPGGLTLRRGLWATAVLLSLAAFLYQVAERVRYYGEFHHKTTLDERESHQLTFPAVTLCNINPLRRSRLTPNDLHWAGTALLGLDPAEHAAYLRALGQPPAPPGFMPSPTFDMAQLYARAGHSLEDMLLDCRYRGQPCGPENFTVIFTRMGQCYTFNSGAHGAELLTTPKGGAGNGLEIMLDVQQEEYLPIWKDMEETPFEVGIRVQIHSQDEPPAIDQLGFGAAPGHQTFVSCQQQQLSFLPPPWGDCNTASLDPDDFDPEPSDPLGSPRPRPSPPYSLIGCRLACESRYVARKCGCRMMHMPGNSPVCSPQQYKDCASPALDAMLRKDTCVCPNPCATTRYAKELSMVRIPSRASARYLARKYNRSESYITENVLVLDIFFEALNYEAVEQKAAYEVSELLGDIGGQMGLFIGASLLTILEILDYLCEVFQDRVLGYFWNRRSAQKRSGNTLLQEELNGHRTHVPHLSLGPRPPTTPCAVTKTLSAGHRTCYLVTRL [S523G]: the “effect of a mutation on the interaction” value is listed as “decreasing interaction”.
